Results published in publication PMC5663475, “SAV1 promotes Hippo kinase activation through antagonizing the PP2A phosphatase STRIPAK” (eLife, 2017).
Changes are numbered by the printed parent chain. In names and notes the source's numbering stands. One block for each molecule: values may come before it. Non-standard residues stand in square brackets, D forms with d. No end group written: not given here. pT = C[C@@H](OP(=O)(O)O)[C@H](N)C(=O)O

Key:
[1] = test system: MCF10A cells; test: Immunoblot of Hippo pathway phosphorylation after latrunculin B treatment; assay type: cell-based, human; settings: LatB 1 μg/ml, 1 hr
Experimental: 293FT cells (Thermo Scientific, catalogue #R70007; not independently authenticated) were cultured in DMEM supplemented with 10% fetal bovine serum, 2 mM L-glutamine and 1% penicillin/streptomycin. MCF10A cells (ATCC, catalogue #CRL-10317; not independently authenticated) were cultured in DMEM/F12 containing 5% horse serum, 20 ng/ml EGF, 0.5 μg/ml hydrocortisone, 100 ng/ml cholera toxin, 10 μg/ml insulin and 1% penicillin/streptomycin. All cells were incubated at 37°C in a humidified 5% CO2 atmosphere. All cell lines were checked by 4’,6-diamidino-2-phenylindole (DAPI) staining to ascertain that they were free of mycoplasma contamination. Transient transfection of 293FT cells was performed with Lipojet (Signagen). Cells were collected for further experiments after 24 hr. siRNA transfection was performed with Lipofectamine RNAiMAX (Invitrogen, Waltham, MA) according to manufacturer’s instructions. The following siRNAs were synthesized by Dharmacon and used in this study: siSLMAP #1, […]dTdT; siSLMAP #2, […]dTdT; siSTRIP1, […]dTdT.
Rabbit polyclonal MST2 phospho-T336 antibody was raised against the MST2 phospho-peptide with the sequence of ESVGpTMRATC at an on-campus facility. Generation of the MST2 phospho-T378 antibody was described previously ([Ni et al., 2015]). […] For immunoblotting, cell lysates and immunoprecipitates were analyzed by standard immunoblotting. The membranes were scanned and band intensities were quantified by the Odyssey Infrared Imaging System (LI-COR). […] We quantified phospho- and total protein bands in a set of three independent experiments. […] The ratios of normalized phospho-proteins versus normalized total proteins were calculated and plotted. […]

[2] = target: MOB1^33-216 (human) (UniProt Q9H8S9); test: ITC; MicroCal iTC200, 20 °C; 50 µM protein in the cell titrated with 500 µM phospho-peptide; 20 mM Tris pH 8.0, 50 mM NaCl (5% DMSO for pT325-MST2 320-329); A + B <-> AB model
[3] = target: T1, SLMAP FHA/R32A (human, UniProt Q14BN4 1-140, R32A); test: as above; settings: both partners purified
T1 construct: SLMAP, human, FHA domain, residues 1-140, R32A; also called SLMAP FHA/R32A mutant; source: E. coli BL21 (DE3)-T1R, purified (glutathione-Sepharose, TEV cleavage, Superdex 75); not shown: GST, N-terminal, cleaved
T1 sequence (looked up): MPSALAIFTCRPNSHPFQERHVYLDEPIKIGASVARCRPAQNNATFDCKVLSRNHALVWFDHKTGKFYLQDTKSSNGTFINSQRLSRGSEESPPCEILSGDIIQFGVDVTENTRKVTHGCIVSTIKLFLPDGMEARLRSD

[4] = target: T2, SLMAP FHA (residues 1–140) (human, UniProt Q14BN4 1-140); test: as above; settings: both partners purified
T2 construct: SLMAP, human, FHA domain, residues 1-140; also called SLMAP FHA domain; apo-SLMAP FHA; source: E. coli BL21 (DE3)-T1R, purified (glutathione-Sepharose, TEV cleavage, Superdex 75); not shown: GST, N-terminal, cleaved
T2 sequence (looked up): T1 sequence (looked up) with A32R

[5] = test system: MST2 SARAH; test: In vitro pull-down of 35S-labeled SAV1 SARAH by GST-MST2 SARAH; assay type: binding, human; settings: GST-MST2 SARAH pull-down of in vitro translated 35S-labeled Myc-SAV1 SARAH (residues 321–383), SDS-PAGE, autoradiography
Experimental: To assay the heterodimerization of SARAH domains between MST2 and SAV1, Myc-tagged SAV1 SARAH (residues 321–383) and the corresponding mutants were in vitro translated in reticulocyte lysate in the presence of ^35S-methionine according to the manufacturer’s protocol (Pierce). Purified GST-MST2 SARAH (residues 430–491) fusion protein was bound to glutathione-Sepharose beads and incubated with ^35S-labeled SAV1 SARAH WT and mutants. The beads were washed three times with TBS containing 0.05% (v/v) Tween. The proteins retained on the beads were analyzed by SDS-PAGE followed by autoradiography.

[6] = test system: MST2; test: MST2-SAV1 autophosphorylation (pT180); assay type: biochemical, human; settings: 2.5 µM MST2-SAV1 complex, dephosphorylated by 0.5 µM PP2A A-C, then 5 µM okadaic acid; 2 mM ATP, anti-pT180 blot; at least two independent experiments
Experimental: For assaying MST2-SAV1 autophosphorylation, 2.5 µM MST2-SAV1-ΔN198 or MST2-SAV1-ΔN268 was dephosphorylated by 0.5 µM PP2A A-C core complex for 30 min at room temperature. Okadaic acid was then added to a final concentration of 5 µM and the reaction mixture was incubated on ice for another 30 min. The reaction mixture was diluted by a ratio of 1:5 at room temperature with a kinase reaction buffer containing 50 mM Tris (pH 7.5), 150 mM NaCl, 5 mM MgCl2, 2 mM ATP, and 1 mM DTT. At different time intervals, autophosphorylation was terminated by adding 2X SDS loading buffer and boiling for 5 min in 100 °C water bath. All samples were separated by SDS-PAGE and blotted by a specific antibody against pT180 of MST2.

Molecule: C/C1=C/C(=O)O[C@@H]2C[C@@H](CC[C@H](C)/C=C\CC1)O[C@@](O)([C@@H]1CSC(=O)N1)C2 [LatB, Latrunculin B]
MOB1 T35 phosphorylation [1]: induced | MST1/2 T-loop phosphorylation [1]: induced | downstream phosphorylation of LATS1/2 and YAP [1]: induced

dH [2]: -4 kcal/mol | Kd [3]: 18800 nM | dH [3]: -6.7 kcal/mol | Kd [4]: 160 nM | dH [4]: -9 kcal/mol
B1: pT378-MST2^373-382 (peptide)
peptide: EEEDG[pT]MKRN
notes: MST2, human, linker residues 373-382; also called pMST2; source: synthetic peptide

Kd [4]: 392 nM | dH [4]: -10.3 kcal/mol
B2: pT325-MST2^320-329 (peptide)
peptide: ELDSH[pT]MVKT
notes: MST2, human, linker residues 320-329; source: synthetic peptide

dH [2]: -13.5 kcal/mol | Kd [4]: 393 nM | dH [4]: -9.5 kcal/mol
B3: pT378-MST2^371-401 (peptide)
peptide: DEEEEDG[pT]MKRNATSPQVQRPSFMDYFDKQD
notes: MST2, human, linker residues 371-401; source: synthetic peptide

binding of SAV1 SARAH mutant to MST2 [5]: completely lost the binding to MST2
B4: SAV1 E346A: SAV1 SARAH (residues 321–383) mutant (protein)
chain: ILKWELFQLADLDTYQGMLKLLFMKALEQIVKMYEAYRQALLTELENRKQRQQWYAQQHGKNF
modifications: not fully specified (N-terminus); also: 35S-methionine labelled, Myc tag, end not given here
notes: SAV1 SARAH (residues 321–383) mutant

binding of SAV1 SARAH mutant to MST2 [5]: completely lost the binding to MST2
B5: R368A: SAV1 SARAH (residues 321–383) mutant (protein, UniProt Q9H4B6 321-383, looked up, variant R368A)
chain: B4 chain with A26E, R48A
modifications: SARAH domain
notes: as for B4

binding of SAV1 SARAH mutant to MST2 [5]: completely lost the binding to MST2
B6: I350A: SAV1 SARAH (residues 321–383) mutant (protein, UniProt Q9H4B6 321-383, looked up, variant I350A)
chain: B4 chain with A26E, I30A
modifications: SARAH domain
notes: as for B4

binding of SAV1 SARAH mutant to MST2 [5]: completely lost the binding to MST2
B7: L365A: SAV1 SARAH (residues 321–383) mutant (protein, UniProt Q9H4B6 321-383, looked up, variant L365A)
chain: B4 chain with A26E, L45A
modifications: SARAH domain
notes: as for B4

binding of SAV1 SARAH mutant to MST2 [5]: completely lost the binding to MST2
B8: Y357A: SAV1 SARAH (residues 321–383) mutant (protein, UniProt Q9H4B6 321-383, looked up, variant Y357A)
chain: B4 chain with A26E, Y37A
modifications: SARAH domain
notes: as for B4

binding of SAV1 SARAH mutant to MST2 [5]: completely lost the binding to MST2
B9: L361A: SAV1 SARAH (residues 321–383) mutant (protein, UniProt Q9H4B6 321-383, looked up, variant L361A)
chain: B4 chain with A26E, L41A
modifications: SARAH domain
notes: as for B4

B10: SAV1 ∆N268: SAV1 SARAH alone (protein, UniProt Q9H4B6 269-383, looked up, fragment)
chain: SVPRYDQPPPVTYQPQQTERNQSLLVPANPYHTAEIPDWLQVYARAPVKYDHILKWELFQLADLDTYQGMLKLLFMKELEQIVKMYEAYRQALLTELENRKQRQQWYAQQHGKNF
MST2 activation (T180 autophosphorylation) in vitro [6]: blocked MST2 activation in vitro

Kd [4]: 1140 nM | dH [4]: -8.2 kcal/mol
B11: pT336-MST2^331-340 (peptide)
peptide: VESVG[pT]MRAT
notes: MST2, human, linker residues 331-340; source: synthetic peptide
